This note sets out measurements from PMC5916030.

For series [1], the target named is anthrax lethal factor (LF) (Bacillus anthracis, UniProt P15917 34-809). As to the kind of experiment: […]) immobilized in 20 mM HEPES pH 7.4, […].
Target sequence in this assay (P15917 34-809): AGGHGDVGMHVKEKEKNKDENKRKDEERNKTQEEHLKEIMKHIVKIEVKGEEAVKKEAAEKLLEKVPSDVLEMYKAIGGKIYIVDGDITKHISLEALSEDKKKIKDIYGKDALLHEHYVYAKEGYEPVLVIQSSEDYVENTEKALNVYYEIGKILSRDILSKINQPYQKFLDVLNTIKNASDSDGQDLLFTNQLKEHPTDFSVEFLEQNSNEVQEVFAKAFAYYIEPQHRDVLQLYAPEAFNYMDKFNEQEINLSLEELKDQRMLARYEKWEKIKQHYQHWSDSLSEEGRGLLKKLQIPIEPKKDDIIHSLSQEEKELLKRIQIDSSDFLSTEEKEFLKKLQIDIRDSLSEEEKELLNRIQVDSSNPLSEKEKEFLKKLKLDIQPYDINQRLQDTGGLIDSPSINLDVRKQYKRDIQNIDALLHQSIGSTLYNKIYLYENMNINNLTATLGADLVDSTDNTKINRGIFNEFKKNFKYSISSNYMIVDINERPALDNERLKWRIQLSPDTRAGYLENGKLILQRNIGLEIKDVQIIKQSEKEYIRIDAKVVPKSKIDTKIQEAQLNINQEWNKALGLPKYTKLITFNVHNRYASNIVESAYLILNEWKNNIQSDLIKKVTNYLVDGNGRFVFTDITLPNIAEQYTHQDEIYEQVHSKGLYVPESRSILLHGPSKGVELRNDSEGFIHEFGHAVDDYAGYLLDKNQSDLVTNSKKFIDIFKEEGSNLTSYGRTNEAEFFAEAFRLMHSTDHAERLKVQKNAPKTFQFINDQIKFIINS
Series [2] has the same target. As to the kind of experiment: aptamer ELISA.
Target sequence in this assay (P15917 34-809): as above

B1: ML6 (ssDNA)
DNA: GGACCAGCCGCCGCGCCTTGACCGGGGGTA
As to B1, the binding result in series [1] is on record as “no binding”.

B2: ML7 (ssDNA)
DNA: GGAGAGAGGGAGACGCGCAACCTCGACCCGT
For the molecule B2, in series [1], the binding result is “no binding”.

B3: scramble 30-mer (ssDNA)
DNA: CGCACTGAAGTGGGATACCGCCTAAACGGA
On to B3, for which the binding result in series [2] is reported as “no binding”.
